The supplement of paper PMC10724198
± gives the standard deviation of the averaged measurements.

tested on: Saccharomyces cerevisiae; assay: protein stability index of tFT-peptide fusion (C-terminal peptide) (PSI (0-1 scale)); higher = more stable (slower turnover); conditions: genetic background: das1 deletion; temperature: 30 C
Description: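 MPS profiling in S. cerevisiae of the yeast C-terminome library: the last 12 aa of each annotated ORF are fused to the C-terminus of a sfGFP-mCherry timer, after a GGGS linker. Cells are FACS-sorted into 8 mCherry/sfGFP bins and deep-sequenced. PSI runs from 0 (unstable) to 1 (stable); wild type and das1Δ backgrounds, two technical replicates each.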

Row | Sequence | protein stability index
1 | ENLRLKLKNFLR [MSH5 C-terminal 12 aa] | 0.683 ± 0.0095
2 | ENRTMFLSKGKS [YPR172W C-terminal 12 aa] | 0.701 ± 0.024
3 | EPKYVDEDDWSD [CEG1 C-terminal 12 aa] | 0.69393 ± 0.00048
4 | EQFTRDFGQEGN [VPS4 C-terminal 12 aa] | 0.7187 ± 0.0015
5 | EQLGHASKRHKP [RPP1 C-terminal 12 aa] | 0.694 ± 0.011
6 | ERGMYRYYSLKA [LUG1 C-terminal 12 aa] | 0.623 ± 0.028
7 | ERLRFYKDTFTL [RRI1 C-terminal 12 aa] | 0.726 ± 0.0089
8 | ERRLSDLQQYHI [TMA10 C-terminal 12 aa] | 0.6982 ± 0.0017
9 | ERVKIGVQFYEE [RTG2 C-terminal 12 aa] | 0.708 ± 0.013
10 | ESDDDMGFGLFD [RPP0 C-terminal 12 aa] | 0.7176 ± 0.002
11 | ESHQDKTEEDIH [OKP1 C-terminal 12 aa] | 0.69113 ± 0.00011
12 | ESISYLFKNYPL [PRS3 C-terminal 12 aa] | 0.717 ± 0.015
13 | ESTTDAESKGSK [MRPL11 C-terminal 12 aa] | 0.676 ± 0.015
14 | ETIWTEWHNLKK [DIG2 C-terminal 12 aa] | 0.726 ± 0.059
15 | ETRASCLLSRAF [YJL052C-A C-terminal 12 aa] | 0.6962 ± 0.0034
16 | EVYLQAIDLIDC [PIR3 C-terminal 12 aa] | 0.6774 ± 0.0063
17 | EWAEENADNVEW [RPS0A C-terminal 12 aa] | 0.7363 ± 0.0068
18 | EWFYEKFLGNIF [DIP5 C-terminal 12 aa] | 0.747 ± 0.013
19 | EWVVPEHMLGPK [FUM1 C-terminal 12 aa] | 0.741 ± 0.0091
20 | EYGGYGEYGNGS [RTG1 C-terminal 12 aa] | 0.6949 ± 0.0018
21 | EYTDFMSWMQDN [YER186C C-terminal 12 aa] | 0.74 ± 0.01

Row | Sequence | protein stability index
22 | FAAPIKPSTRAG [YLR347W-A C-terminal 12 aa] | 0.6876 ± 0.0016
23 | FAQNTNKDVELN [NGG1 C-terminal 12 aa] | 0.682 ± 0.028
24 | FASNKKVTASLR [AZR1 C-terminal 12 aa] | 0.696 ± 0.013
25 | FDELVRKYDTSN [SEC28 C-terminal 12 aa] | 0.718 ± 0.017
26 | FEFEFFESCYNA [PET18 C-terminal 12 aa] | 0.744 ± 0.019
27 | FGIWNTDMSVWS [YBL081W C-terminal 12 aa] | 0.699 ± 0.017
28 | FGKYLPLNYPSE [ASG1 C-terminal 12 aa] | 0.7167 ± 0.0015
29 | FGNDMVINFETD [UTP22 C-terminal 12 aa] | 0.7438 ± 0.0026
30 | FHLNAKTRESEI [YDL162C C-terminal 12 aa] | 0.702 ± 0.012
31 | FIHDVFFVYFRF [YDL094C C-terminal 12 aa] | 0.176 ± 0.0076
32 | FIKLSLASSFSN [ISF1 C-terminal 12 aa] | 0.7094 ± 0.0028
33 | FINKIYHQKVNL [TMN3 C-terminal 12 aa] | 0.707 ± 0.0078
34 | FKAKFRKVKINA [YKR015C C-terminal 12 aa] | 0.6339 ± 0.0053
35 | FKIFCNCIQSLA [YPL199C C-terminal 12 aa] | 0.341 ± 0.0075
36 | FKSTPIIYSNVI [YER006C-A C-terminal 12 aa] | 0.724 ± 0.027
37 | FLEIVVPCHCTT [YJL077W-A C-terminal 12 aa] | 0.539 ± 0.0037
38 | FLIWRKKVSRNK [YOR329W-A C-terminal 12 aa] | 0.73 ± 0.054
39 | FLNIENPENQSE [RCO1 C-terminal 12 aa] | 0.687 ± 0.01
40 | FLSMTYASLVNK [YLR294C C-terminal 12 aa] | 0.713 ± 0.022
41 | FLVLKIIKALLW [MTC4 C-terminal 12 aa] | 0.526 ± 0.013
42 | FRGKLFLDSITD [MLC2 C-terminal 12 aa] | 0.724 ± 0.0085

Row | Sequence | protein stability index
43 | FRNYRGHYRGRK [SGS1 C-terminal 12 aa] | 0.705 ± 0.03
44 | FSALVLRGVRGE [YBR196C-B C-terminal 12 aa] | 0.698 ± 0.014
45 | FSDFLDSNRITQ [LDB19 C-terminal 12 aa] | 0.72756 ± 0.00057
46 | FSDWKNNNGPHK [IBA57 C-terminal 12 aa] | 0.701 ± 0.02
47 | FSTIDGSIKDIK [FDO1 C-terminal 12 aa] | 0.668 ± 0.023
48 | FTGGDILPPEFN [SPS18 C-terminal 12 aa] | 0.7639 ± 0.0048
49 | FTHFTSSKDRKD [SIT1 C-terminal 12 aa] | 0.711 ± 0.026
50 | FVAKEIADDSKK [TIM12 C-terminal 12 aa] | 0.684 ± 0.016
51 | GAAVAAGVAFLF [YDR524C-B C-terminal 12 aa] | 0.717 ± 0.018
52 | GAAVRLTGSDRV [RPN7 C-terminal 12 aa] | 0.685 ± 0.007
53 | GAMSEGKTGQLN [YLR036C C-terminal 12 aa] | 0.699 ± 0.02
54 | GARPPKNEARII [YBL036C C-terminal 12 aa] | 0.694 ± 0.011
55 | GCDLDISYAKRL [HRB1 C-terminal 12 aa] | 0.7155 ± 0.0028
56 | GCGCNCPEMFDA [MTC5 C-terminal 12 aa] | 0.6906 ± 0.0026
57 | GDEEDPNEEAAF [RPC31 C-terminal 12 aa] | 0.692 ± 0.01
58 | GDSDNVVKRLRK [URB1 C-terminal 12 aa] | 0.686 ± 0.018
59 | GECVLTKNNKFT [ATG21 C-terminal 12 aa] | 0.672 ± 0.034
60 | GFIRGSNKFAEV [SMC3 C-terminal 12 aa] | 0.6866 ± 0.0044
61 | GFQTGSASKASA [RPL37A C-terminal 12 aa] | 0.71864 ± 0.00033
62 | GIVYDFHKSDMY [LSM1 C-terminal 12 aa] | 0.683 ± 0.036
63 | GKDITDQPCIDL [SSP2 C-terminal 12 aa] | 0.7054 ± 0.00083

Row | Sequence | protein stability index
64 | GKTAADNIAKLY [OSM1 C-terminal 12 aa] | 0.6764 ± 0.004
65 | GLCLCCTLDMLF [YDL012C C-terminal 12 aa] | 0.676 ± 0.014
66 | GLLMAGKASEFQ [VMA16 C-terminal 12 aa] | 0.694 ± 0.013
67 | GMLYALYIVLQD [PMP3 C-terminal 12 aa] | 0.301 ± 0.0097
68 | GNAIREIKTYKY [GLY1 C-terminal 12 aa] | 0.687 ± 0.035
69 | GPSDDDEEDDKK [YGL242C C-terminal 12 aa] | 0.643 ± 0.043
70 | GPTIPISATIRE [RCK2 C-terminal 12 aa] | 0.65756 ± 0.00065
71 | GPYWKRVLDFWC [GNP1 C-terminal 12 aa] | 0.752 ± 0.012
72 | GPYWKRVVAFWC [AGP1 C-terminal 12 aa] | 0.734 ± 0.017
73 | GRNKIYILFNVL [YMR030W-A C-terminal 12 aa] | 0.6466 ± 0.0047
74 | GRVDFQSTSKFT [AIM24 C-terminal 12 aa] | 0.702 ± 0.036
75 | GTAASEPTPITK [ATP15 C-terminal 12 aa] | 0.7295 ± 0.0065
76 | GTKMEWFFDPLA [IPT1 C-terminal 12 aa] | 0.732 ± 0.025
77 | GTMKVDSWEPVD [ACH1 C-terminal 12 aa] | 0.7 ± 0.013
78 | GTVNYAGLHDEL [SED4 C-terminal 12 aa] | 0.687 ± 0.034
79 | GVRKEFYELKRD [PRE7 C-terminal 12 aa] | 0.69519 ± 5.6e-05
80 | GYKDRFGNLNVM [ATP7 C-terminal 12 aa] | 0.7037 ± 0.0041
81 | GYQRGLDEFNKY [MRX18 C-terminal 12 aa] | 0.7148 ± 0.0013
82 | HEKPHTVSLRHK [CPR4 C-terminal 12 aa] | 0.717 ± 0.013
